Measured values taken from patent US20220252601A1 (JW BIOSCIENCE, published 2022).

Columns and labels:
Test in all cases: indirect ELISA, antigen coated at 1 µg/ml
[1] = target: KRS (lysyl tRNA synthetase) (UniProt Q15046 1-597, limits assumed)
[2] = target: T1, AIMP1 (aminoacyl tRNA synthase complex-interacting multifunctional protein 1) (UniProt Q12904 1-312, limits assumed)
T1 construct: also called p43
T1 sequence (looked up): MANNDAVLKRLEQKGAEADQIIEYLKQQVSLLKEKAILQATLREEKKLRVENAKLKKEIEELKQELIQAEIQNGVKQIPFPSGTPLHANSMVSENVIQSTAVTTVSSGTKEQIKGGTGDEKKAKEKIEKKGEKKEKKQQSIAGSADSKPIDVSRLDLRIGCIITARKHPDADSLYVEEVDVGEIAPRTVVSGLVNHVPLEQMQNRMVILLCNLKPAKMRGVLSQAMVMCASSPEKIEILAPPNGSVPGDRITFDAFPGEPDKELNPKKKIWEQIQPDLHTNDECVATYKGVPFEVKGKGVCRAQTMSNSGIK

[3] = target: T2, CRS (cysteinyl-tRNA synthetase) (UniProt P49589 1-748, limits assumed)
T2 sequence (looked up): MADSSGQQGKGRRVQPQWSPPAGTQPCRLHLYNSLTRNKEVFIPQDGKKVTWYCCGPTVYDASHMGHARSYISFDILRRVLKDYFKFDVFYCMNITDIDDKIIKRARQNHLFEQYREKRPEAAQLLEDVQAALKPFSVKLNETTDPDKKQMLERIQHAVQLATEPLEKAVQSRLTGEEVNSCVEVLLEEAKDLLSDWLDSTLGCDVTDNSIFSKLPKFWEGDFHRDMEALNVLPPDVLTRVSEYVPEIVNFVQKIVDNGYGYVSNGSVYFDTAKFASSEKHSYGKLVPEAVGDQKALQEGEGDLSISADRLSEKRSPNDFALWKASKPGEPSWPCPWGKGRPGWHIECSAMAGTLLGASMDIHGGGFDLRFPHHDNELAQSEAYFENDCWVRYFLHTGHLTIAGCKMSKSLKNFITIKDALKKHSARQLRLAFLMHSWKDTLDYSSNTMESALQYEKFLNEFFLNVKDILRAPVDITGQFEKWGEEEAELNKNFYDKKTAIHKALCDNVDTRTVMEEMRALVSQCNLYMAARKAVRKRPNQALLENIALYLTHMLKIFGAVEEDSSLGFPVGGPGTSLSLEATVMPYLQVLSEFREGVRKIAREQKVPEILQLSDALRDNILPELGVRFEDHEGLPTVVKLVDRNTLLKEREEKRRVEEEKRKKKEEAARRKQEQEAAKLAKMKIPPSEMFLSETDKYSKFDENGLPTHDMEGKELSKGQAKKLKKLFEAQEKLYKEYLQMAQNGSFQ

[4] = target: T3, GRS (glycyl tRNA synthetase) (UniProt P41250 55-739, limits assumed)
T3 sequence (looked up): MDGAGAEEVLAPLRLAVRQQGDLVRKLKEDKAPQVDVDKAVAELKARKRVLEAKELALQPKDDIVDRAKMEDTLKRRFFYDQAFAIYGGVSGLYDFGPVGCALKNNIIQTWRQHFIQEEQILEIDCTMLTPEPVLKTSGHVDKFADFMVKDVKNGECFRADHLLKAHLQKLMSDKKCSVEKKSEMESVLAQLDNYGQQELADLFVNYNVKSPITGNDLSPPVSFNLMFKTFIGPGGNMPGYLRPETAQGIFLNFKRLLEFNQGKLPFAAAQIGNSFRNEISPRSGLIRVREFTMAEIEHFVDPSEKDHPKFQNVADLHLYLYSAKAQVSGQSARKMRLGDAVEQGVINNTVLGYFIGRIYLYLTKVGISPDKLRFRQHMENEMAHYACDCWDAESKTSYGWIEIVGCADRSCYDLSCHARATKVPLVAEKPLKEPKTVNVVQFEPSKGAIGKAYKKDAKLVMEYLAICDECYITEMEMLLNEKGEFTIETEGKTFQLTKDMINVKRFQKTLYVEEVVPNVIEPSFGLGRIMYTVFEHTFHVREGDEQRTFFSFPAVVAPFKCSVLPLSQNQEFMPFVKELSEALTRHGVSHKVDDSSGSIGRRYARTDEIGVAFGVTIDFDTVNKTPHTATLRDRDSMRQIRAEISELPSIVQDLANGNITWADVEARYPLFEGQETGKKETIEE

Measured: binding result

Chain of KRS (lysyl tRNA synthetase) (Q15046 whole entry): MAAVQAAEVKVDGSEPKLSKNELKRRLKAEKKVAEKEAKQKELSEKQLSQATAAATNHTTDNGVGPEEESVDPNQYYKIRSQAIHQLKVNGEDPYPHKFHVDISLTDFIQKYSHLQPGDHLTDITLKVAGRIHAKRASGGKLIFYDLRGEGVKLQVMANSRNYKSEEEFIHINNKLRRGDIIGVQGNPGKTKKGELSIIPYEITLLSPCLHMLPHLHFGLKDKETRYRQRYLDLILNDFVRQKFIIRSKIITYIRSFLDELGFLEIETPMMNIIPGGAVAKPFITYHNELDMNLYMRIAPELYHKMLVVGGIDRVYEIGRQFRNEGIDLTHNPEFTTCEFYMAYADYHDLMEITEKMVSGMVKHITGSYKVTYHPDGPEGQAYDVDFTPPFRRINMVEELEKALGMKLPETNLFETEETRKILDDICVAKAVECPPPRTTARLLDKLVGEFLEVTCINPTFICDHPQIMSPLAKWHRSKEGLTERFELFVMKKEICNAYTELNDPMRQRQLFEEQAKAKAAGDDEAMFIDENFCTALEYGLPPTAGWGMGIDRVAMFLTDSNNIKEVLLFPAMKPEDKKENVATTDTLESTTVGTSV

B1: 1D4C3 (antibody, V domains shown)
VH: QAYLQQSGAELVRPGASVKMSCKASGYTFTSYNMHWVKQTPRQGLEWIGAIYPGNGDSSYNQKFKGKATLTVGKSSSTAYMQLSSLTSEDSAVYFCARWHYGSTYYAMDYWGQGTSVTVSS
VL: DIQMTQTTSSLSASLGDRVTISCRASQDISNYLNWFQQKPDGTVKLLIYYTSRLHSGVPSRFSGSGSGTDYSLTISNLEQEDFATYFCQQGKTLPHTFGGGTKLEIK
modifications: Antibody was biotin-attached in the ELISA of Example 5; site not stated.
notes: detected with anti-mouse HRP; also called 1D4C4
no binding (tested: 500 ng/ml): all assays above

B2: 3B10H5 (antibody, V domains shown)
VH: QAYLQQSGAELVRPGASVKMSCKASGYTFTSYNLHWVKQTPRQGLKWIGAIYPGNGDTSYNQKFKGKATLTVDKSSSTAYMQLSSLTSEDSAVYFCARWHYGSSYYAMDYWGQGTSVTVSS
VL: DIQMTQTTSSLSASLGDRVTISCRASQDISNYLNWYQQKPDGTVKLLISYTSRLHSGVPSRFSGSGSGTDYSLTISNLEQEDIATYFCQQGYTLPHTFGGGTKLEIK
modifications: Antibody was biotin-attached in the ELISA of Example 5; site not stated.
notes: detected with anti-mouse HRP
no binding (tested: 500 ng/ml): all assays above

B3: 3B6 (antibody, V domains shown)
VH: EVQLLESGGGLVQPGGSLRLSCAASGFTFSSYSMSWVRQAPGKGLEWVSAISYDNGNTYYADSVKGRFTISRDNSKNTLYLQMNSLRAEDTAVYYCAKGATTQPHTSFDYWGQGTLVTVNS
VL: QSVLTQPPSASGTPGQRVTISCSGSSSNIGNNNVSWYQQLPGTAPKLLIYYNSHRPSGVPDRFSGSKSGTSASLAISGLRSEDEADYYCGTWDASLSAYVFGGGTKLTVL
modifications: Antibody was biotin-attached in the ELISA of Example 5; site not stated.
no binding (tested: 500 ng/ml): all assays above

B4: 4H9 (antibody, V domains shown)
VH: EVQLLESGGGLVQPGGPLRLSCAASGFTFSNYAMSWVRQAPGKGLEWVSSIYPDGGGIYYADSVKGRFTISRDNSKNTLYLQMNSLRAEDTAVYYCARDLYPFGPDTFDYWGQGTLVTVSS
VL: QSVLTQPPSASGTPGQRVTISCSGSSSNIGSNDVTWYQQLPGTAPKLLIYDNSKRPSGVPDRFSGSKSGTSASLAISGLRSEDEADYYCGAWDDSLSGYVFGGGTKLTVL
modifications: Antibody was biotin-attached in the ELISA of Example 5; site not stated.
no binding (tested: 500 ng/ml): all assays above

B5: 4G4 (antibody, V domains shown)
VH: EVQLLESGGGLVQPGGSLRLSCAASGLTFSNYAMSWVRQAPGKGLEWVSWISPGDGNKYYADSVRGRFTVSRDNSKNTLYLQMNSLRAEDTAVYYCARVTIPCRRTTCYSANGMDVWGQGTLVTVSS
VL: QSVLTQPPSASGTPGQRVTISCSGSSSNIGSNSVTWYQQLPGTAPKLLIYHDSHPPSGVPDRFSGSKSGTSASLAISGLRSEDEADYYCAAWDDSLSGYVFGGGTKLTVL
modifications: Antibody was biotin-attached in the ELISA of Example 5; site not stated.
no binding (tested: 500 ng/ml): all assays above
